Laboratory results reported in publication PMC11452297.

Target: C-terminal domain of FusB (residues 224-324) (Pectobacterium carotovorum)
Test: ITC; 480 uM PM1 in the syringe titrated into 20 uM FusB in the cell; VP-ITC, 25 °C, 20 mM sodium phosphate pH 7.5, 150 mM NaCl

**Q.** Which Kd does the source give for Pectocin M1 (natural protein) here?
**A.** 8.1 µM

**Q.** What about the dH of the same substance?
**A.** -6 kcal/mol
